{"source": "paper PMC8449268", "about": "“Activity of the yeast vacuolar TRP channel TRPY1 is inhibited by Ca^2+–calmodulin binding” (The Journal of Biological Chemistry, 2021)", "binders": {"B1": {"name": "MBP-TRPY1-C (cytosolic C terminus of TRPY1 fused to maltose-binding protein) (domain or fragment, S. cerevisiae, UniProt Q12324 538-675, looked up)", "chain": "KETREARRIKYNRMKRLNDDANEYDTPWDLTDGYLDDDDGLFSDNRNSGMRATQLKNSRSLKLQRTAEQEDVHFKVPKKWYKNVKKCSPSFEQYDNDDTEDDAGEDKDEVKELTKKVENLTAVITDLLEKLDIKDKKE", "notes": "TRPY1 (Yvc1, gene YVC1), Saccharomyces cerevisiae; cytosolic C terminus, printed as 137 amino acids, residues 538-675 (K538 to E675); The limits 538-675 are printed for GST-TRPY1-C and for 'the complete recombinant TRPY1 C terminus'; also called MBP-fused TRPY1-C; Yvc1 C terminus; source: E. coli, purified (amylose resin)"}, "B2": {"name": "GST-TRPY1-C (538–675) (domain or fragment, S. cerevisiae, UniProt Q12324 538-675, looked up)", "chain": "B1 chain", "notes": "TRPY1 (Yvc1), Saccharomyces cerevisiae; cytosolic C terminus, printed as 137 amino acids, residues 538-675 (K538 to E675); also called GST-tagged TRPY1-C; source: E. coli, purified (glutathione sepharose)"}, "B3": {"name": "TRPY1 C-terminal peptide of the peptide scan, residues 527–546 (peptide, UniProt Q12324 527-546, looked up)", "peptide": "VYSPFLLLISVKETREARRI", "notes": "source: synthetic peptide, spot-synthesised on cellulose membrane"}}, "details_in_all_cases": "both partners purified", "key": {"[1]": {"biological_target": "T1, GST-Cmd1 (yeast calmodulin fused to glutathione-S-transferase) (S. cerevisiae (yeast), UniProt P06787 1-147)", "T1 construct": "Yeast calmodulin Cmd1, wild type; In the peptide scan the same fusion protein was used ^14C-labelled (^14C-GST-Cmd1); also called GST-fused Cmd1; yeast CaM; source: E. coli, purified (glutathione sepharose)", "T1 sequence (P06787 whole entry, the tested form may be a part)": "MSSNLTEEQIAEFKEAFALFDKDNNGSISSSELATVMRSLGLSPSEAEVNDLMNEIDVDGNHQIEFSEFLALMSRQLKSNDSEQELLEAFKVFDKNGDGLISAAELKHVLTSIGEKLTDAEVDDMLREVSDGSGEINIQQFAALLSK", "test": "pull-down; MBP-fused TRPY1 fragments (12 ug) immobilised on amylose resin, incubated with 12 ug GST-Cmd1 or GST-Cmd1–6 with 2 mM Ca2+, 60 min, 4 °C; bound protein detected by anti-GST blot"}, "6His-Cmd1": {"biological_target": "T2, 6His-Cmd1 (S. cerevisiae (yeast), UniProt P06787 1-147)", "T2 construct": "Yeast calmodulin Cmd1, wild type; also called yeast CaM; source: E. coli, purified (Ni–NTA agarose)", "T2 sequence (P06787 whole entry)": "as the sequence (P06787 whole entry, the tested form may be a part) above", "test": "pull-down; GST, GST-Cmd1 or GST-TRPY1-C (12 ug) immobilised on glutathione sepharose; 6His-Sumo-TRPY1-N or 12 ug 6His-Cmd1 added, 2 mM CaCl2, 60 min, 4 °C; SDS-PAGE and Coomassie blue staining"}, "[2]": {"biological_target": "T1, GST-Cmd1 (yeast calmodulin fused to …)", "test": "peptide or protein array; 20-mer TRPY1 peptides shifted by five residues on cellulose membrane (16 nmoles per spot); ^14C-GST-Cmd1 (60 cpm per spot) in 50 mM Tris pH 7.5, 150 mM NaCl, 0.1% Triton X-100, 2 mM CaCl2, 4 °C, 16 h; autoradiography"}}, "data": [{"binder": "B1", "values": [{"measurement": "binding result", "setting": "[1]", "result": "binds"}]}, {"binder": "B2", "values": [{"measurement": "binding result", "setting": "6His-Cmd1", "result": "binds"}]}, {"binder": "B3", "values": [{"measurement": "binding result", "setting": "[2]", "result": "binds"}]}]}
